Measurements published in article PMC12390807, “Developing and validating anti-ADA2 single-chain antibodies coupled to alkaline phosphatase for diagnosing pleural tuberculosis” (Frontiers in Immunology, 2025).

Biological target: T1, human adenosine deaminase 2 (ADA2) (Homo sapiens, UniProt Q9NZK5)
T1 construct: adenosine deaminase 2 (ADA2), human, recombinant, produced in S2 insect cells; also called hADA2; recombinant ADA2
Experiment: BLI; apparent dissociation constant; which partner was immobilised and the conditions are not told
Conditions: both partners purified

T1 sequence (Q9NZK5 30-511): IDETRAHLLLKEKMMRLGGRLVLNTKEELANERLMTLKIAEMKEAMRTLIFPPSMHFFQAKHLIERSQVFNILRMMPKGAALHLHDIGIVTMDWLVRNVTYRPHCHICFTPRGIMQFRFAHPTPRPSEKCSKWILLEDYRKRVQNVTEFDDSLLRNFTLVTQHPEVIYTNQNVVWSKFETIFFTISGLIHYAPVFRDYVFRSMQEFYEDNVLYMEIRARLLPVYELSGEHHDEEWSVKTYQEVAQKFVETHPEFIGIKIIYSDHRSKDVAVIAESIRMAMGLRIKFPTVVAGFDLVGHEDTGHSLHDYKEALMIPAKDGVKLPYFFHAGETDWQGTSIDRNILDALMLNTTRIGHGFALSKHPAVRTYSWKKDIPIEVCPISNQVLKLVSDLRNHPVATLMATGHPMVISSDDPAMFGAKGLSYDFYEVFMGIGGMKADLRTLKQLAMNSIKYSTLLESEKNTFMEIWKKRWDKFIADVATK

B1: H11 anti-ADA2 scFv-AP (single-chain antibody fused with bacterial alkaline phosphatase) (scFv, V domains shown)
VH: EVQLLESGGGLVQPGGSLRLSCAASGFTFSSYSMHWVRQAPGKGLEWVSSIWGVNGETDYADSVKGRFTISRDNSKNTLYLQMNSLRAEDTAVYYCAADWSLDYWGQGTLVTVSS
VL: EIVLTQSPGTLSLSPGERATLSCRASQSVSSSYLAWYQQKPGQAPRLLIYGASSRATGVPDRFSGSGSGTDFTLTISRLEPEDFAVYYCQQSSSYPWTFGQGTKVEIK
notes: The clone name H11 appears only in the ELISA methods; also called H11 scFv-AP; sc-anti-ADA2 alkaline phosphatase fusion protein; source: E. coli XL1-Blue (pAK600H vector), purified (Nickel Sepharose HiTrap / Ni-NTA Chelating Sepharose)
In the case of B1, the Kd is reported as < 10 nM.
